# T1: human LAG-3 (human, UniProt P18627 23-525)
# T1 chain: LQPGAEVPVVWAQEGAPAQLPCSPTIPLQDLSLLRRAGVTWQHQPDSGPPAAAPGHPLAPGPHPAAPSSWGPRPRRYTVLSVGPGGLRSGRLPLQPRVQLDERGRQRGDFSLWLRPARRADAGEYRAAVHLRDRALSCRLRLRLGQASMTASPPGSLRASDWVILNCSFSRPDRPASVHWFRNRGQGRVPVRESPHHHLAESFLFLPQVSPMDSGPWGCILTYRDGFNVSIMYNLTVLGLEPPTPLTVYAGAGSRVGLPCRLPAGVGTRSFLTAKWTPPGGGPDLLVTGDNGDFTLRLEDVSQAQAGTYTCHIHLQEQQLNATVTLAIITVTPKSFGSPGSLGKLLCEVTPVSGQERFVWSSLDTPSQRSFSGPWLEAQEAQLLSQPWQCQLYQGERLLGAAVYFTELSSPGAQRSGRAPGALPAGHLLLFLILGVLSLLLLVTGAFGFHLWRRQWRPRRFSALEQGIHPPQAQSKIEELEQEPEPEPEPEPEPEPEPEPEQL
# Key:
# human LAG-3 [1] = biological target: T1, human LAG-3; experiment: flow cytometry, CHO-K1 cells expressing human LAG-3; FIG. 2
# human CD47 = human CD47 (human, UniProt Q08722 19-323); experiment: flow
# human LAG-3 [2] = biological target: T1, human LAG-3; experiment: flow cytometry, CHO-K1 cells expressing human LAG-3; FIG. 1
# Chain of human CD47 (Q08722 19-323): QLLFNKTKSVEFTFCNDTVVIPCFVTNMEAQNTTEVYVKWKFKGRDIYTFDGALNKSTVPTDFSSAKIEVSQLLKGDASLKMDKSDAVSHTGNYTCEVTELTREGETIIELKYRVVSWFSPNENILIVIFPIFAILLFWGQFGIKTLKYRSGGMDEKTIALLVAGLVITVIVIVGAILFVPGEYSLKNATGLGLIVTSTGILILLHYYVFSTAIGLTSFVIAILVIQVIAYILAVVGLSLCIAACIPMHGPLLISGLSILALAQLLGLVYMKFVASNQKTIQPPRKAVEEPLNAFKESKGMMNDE
EC50 (human LAG-3 [1]) [nM],EC50 (human CD47) [nM],EC50 (human LAG-3 [2]) [nM],Binder
0.322,–,–,bispecific antibody LAG3-G9-LN (bispecific antibody) heavy: not shown light: EVQLVESGGGLVQPGGSLRLSCAASGYTVSSYCMGWFRQAPGKGREGVSAIDSDGSVSYADSVKGRFTISKDNSKNTLYLQMNSLRAEDTAVYFCAADLCWVDQDQGEYNTWGQGTLVTVSSGGGGSGGGSEIVLTQSPATLSLSPGERATLSCRASENVGTYISWYQQKPGQAPRLLIYGASNRYTGIPARFSGSGSGTDFTLTISSLEPEDFAVYYCGESYGHLYTFGGGTKVEIKRTVAAPSVFIFPPSDEQLKSGTASVVCLLNNFYPREAKVQWKVDNALQSGNSQESVTEQDSKDSTYSLSSTLTLSKADYEKHKVYACEVTHQGLSSPVTKSFNRGEC
0.448,–,–,bispecific antibody LAG3-E-LN (bispecific antibody) heavy: not shown light: EVQLVESGGGLVQPGGSLRLSCAASGYTVSSYCMGWFRQAPGKGREGVSAIDSDGSVSYADSVKGRFTISKDNSKNTLYLQMNSLRAEDTAVYFCAADLCWVDQDQGEYNTWGQGTLVTVSSEPKSSDKTHTSPPSPEIVLTQSPATLSLSPGERATLSCRASENVGTYISWYQQKPGQAPRLLIYGASNRYTGIPARFSGSGSGTDFTLTISSLEPEDFAVYYCGESYGHLYTFGGGTKVEIKRTVAAPSVFIFPPSDEQLKSGTASVVCLLNNFYPREAKVQWKVDNALQSGNSQESVTEQDSKDSTYSLSSTLTLSKADYEKHKVYACEVTHQGLSSPVTKSFNRGEC
0.535,–,–,bispecific antibody LAG3-G15-LN (bispecific antibody) heavy: not shown light: EVQLVESGGGLVQPGGSLRLSCAASGYTVSSYCMGWFRQAPGKGREGVSAIDSDGSVSYADSVKGRFTISKDNSKNTLYLQMNSLRAEDTAVYFCAADLCWVDQDQGEYNTWGQGTLVTVSSGGGGSGGGGSGGGGSEIVLTQSPATLSLSPGERATLSCRASENVGTYISWYQQKPGQAPRLLIYGASNRYTGIPARFSGSGSGTDFTLTISSLEPEDFAVYYCGESYGHLYTFGGGTKVEIKRTVAAPSVFIFPPSDEQLKSGTASVVCLLNNFYPREAKVQWKVDNALQSGNSQESVTEQDSKDSTYSLSSTLTLSKADYEKHKVYACEVTHQGLSSPVTKSFNRGEC
–,1.01,–,"anti-CD47 monoclonal antibody (mAb) (antibody, V domains shown) VH: EVQLVQSGAEVKKPGSSVKVSCKASGYSFTHHWIHWVRQAPGQGLEWMGMIDASDSETRLSQKFKDRVTITADKSTSTAYMELSSLRSEDTAVYYCARLGRYYFDYWGQGTTVTVSS VL: EIVLTQSPATLSLSPGERATLSCRASENVGTYISWYQQKPGQAPRLLIYGASNRYTGIPARFSGSGSGTDFTLTISSLEPEDFAVYYCGESYGHLYTFGGGTKVEIKR"
–,1.17,0.8,bispecific antibody LAG3-E-HC (bispecific antibody) heavy: not shown light: EIVLTQSPATLSLSPGERATLSCRASENVGTYISWYQQKPGQAPRLLIYGASNRYTGIPARFSGSGSGTDFTLTISSLEPEDFAVYYCGESYGHLYTFGGGTKVEIKRTVAAPSVFIFPPSDEQLKSGTASVVCLLNNFYPREAKVQWKVDNALQSGNSQESVTEQDSKDSTYSLSSTLTLSKADYEKHKVYACEVTHQGLSSPVTKSFNRGEC
–,3.85,0.57,bispecific antibody LAG3-G15-HN (bispecific antibody) heavy: not shown light: EIVLTQSPATLSLSPGERATLSCRASENVGTYISWYQQKPGQAPRLLIYGASNRYTGIPARFSGSGSGTDFTLTISSLEPEDFAVYYCGESYGHLYTFGGGTKVEIKRTVAAPSVFIFPPSDEQLKSGTASVVCLLNNFYPREAKVQWKVDNALQSGNSQESVTEQDSKDSTYSLSSTLTLSKADYEKHKVYACEVTHQGLSSPVTKSFNRGEC
–,0.865,0.602,bispecific antibody LAG3-G9-HC (bispecific antibody) heavy: not shown light: EIVLTQSPATLSLSPGERATLSCRASENVGTYISWYQQKPGQAPRLLIYGASNRYTGIPARFSGSGSGTDFTLTISSLEPEDFAVYYCGESYGHLYTFGGGTKVEIKRTVAAPSVFIFPPSDEQLKSGTASVVCLLNNFYPREAKVQWKVDNALQSGNSQESVTEQDSKDSTYSLSSTLTLSKADYEKHKVYACEVTHQGLSSPVTKSFNRGEC
–,3.96,0.477,bispecific antibody LAG3-G9-HN (bispecific antibody) heavy: not shown light: EIVLTQSPATLSLSPGERATLSCRASENVGTYISWYQQKPGQAPRLLIYGASNRYTGIPARFSGSGSGTDFTLTISSLEPEDFAVYYCGESYGHLYTFGGGTKVEIKRTVAAPSVFIFPPSDEQLKSGTASVVCLLNNFYPREAKVQWKVDNALQSGNSQESVTEQDSKDSTYSLSSTLTLSKADYEKHKVYACEVTHQGLSSPVTKSFNRGEC
–,4.44,0.526,bispecific antibody LAG3-E-HN (bispecific antibody) heavy: not shown light: EIVLTQSPATLSLSPGERATLSCRASENVGTYISWYQQKPGQAPRLLIYGASNRYTGIPARFSGSGSGTDFTLTISSLEPEDFAVYYCGESYGHLYTFGGGTKVEIKRTVAAPSVFIFPPSDEQLKSGTASVVCLLNNFYPREAKVQWKVDNALQSGNSQESVTEQDSKDSTYSLSSTLTLSKADYEKHKVYACEVTHQGLSSPVTKSFNRGEC
–,0.911,0.672,bispecific antibody LAG3-G15-HC (bispecific antibody) heavy: not shown light: EIVLTQSPATLSLSPGERATLSCRASENVGTYISWYQQKPGQAPRLLIYGASNRYTGIPARFSGSGSGTDFTLTISSLEPEDFAVYYCGESYGHLYTFGGGTKVEIKRTVAAPSVFIFPPSDEQLKSGTASVVCLLNNFYPREAKVQWKVDNALQSGNSQESVTEQDSKDSTYSLSSTLTLSKADYEKHKVYACEVTHQGLSSPVTKSFNRGEC
0.552,–,–,bispecific antibody LAG3-E-LC (bispecific antibody) heavy: not shown light: EIVLTQSPATLSLSPGERATLSCRASENVGTYISWYQQKPGQAPRLLIYGASNRYTGIPARFSGSGSGTDFTLTISSLEPEDFAVYYCGESYGHLYTFGGGTKVEIKRTVAAPSVFIFPPSDEQLKSGTASVVCLLNNFYPREAKVQWKVDNALQSGNSQESVTEQDSKDSTYSLSSTLTLSKADYEKHKVYACEVTHQGLSSPVTKSFNRGECEPKSSDKTHTSPPSPEVQLVESGGGLVQPGGSLRLSCAASGYTVSSYCMGWFRQAPGKGREGVSAIDSDGSVSYADSVKGRFTISKDNSKNTLYLQMNSLRAEDTAVYFCAADLCWVDQDQGEYNTWGQGTLVTVSS

# — patent publication US20220267436A1 (published 2022)
